B1: human NADK2 (aa 61–442 with an N terminus His-tag) (enzyme, UniProt Q4G0N4 61-442, looked up)
chain: RADGGFRPSRVVVVAKTTRYEFEQQRYRYAELSEEDLKQLLALKGSSYSGLLERHHIHTKNVEHIIDSLRNEGIEVRLVKRREYDEETVRWADAVIAAGGDGTMLLAASKVLDRLKPVIGVNTDPERSEGHLCLPVRYTHSFPEALQKFYRGEFRWLWRQRIRLYLEGTGINPVPVDLHEQQLSLNQHNRALNIERAHDERSEASGPQLLPVRALNEVFIGESLSSRASYYEISVDDGPWEKQKSSGLNLCTGTGSKAWSFNINRVATQAVEDVLNIAKRQGNLSLPLNRELVEKVTNEYNESLLYSPEEPKILFSIREPIANRVFSSSRQRCFSSKVCVRSRCWDACMVVDGGTSFEFNDGAIASMMINKEDELRTVLLEQ
B2: His-NADK2^Δ231–266 (aa 61–442) (enzyme, human, UniProt Q4G0N4 61-442, looked up)
chain: RADGGFRPSRVVVVAKTTRYEFEQQRYRYAELSEEDLKQLLALKGSSYSGLLERHHIHTKNVEHIIDSLRNEGIEVRLVKRREYDEETVRWADAVIAAGGDGTMLLAASKVLDRLKPVIGVNTDPERSEGHLCLPVRYTHSFPEALQKFYRGEFRWLWRQRIRLYLEGTGPQLLPVRALNEVFIGESLSSRASYYEISVDDGPWEKQKSSGLNLCTGTGSKAWSFNINRVATQAVEDVLNIAKRQGNLSLPLNRELVEKVTNEYNESLLYSPEEPKILFSIREPIANRVFSSSRQRCFSSKVCVRSRCWDACMVVDGGTSFEFNDGAIASMMINKEDELRTVLLEQ
B3: His-NADK2^V334R (enzyme, human, UniProt Q4G0N4 61-442, looked up)
chain: RADGGFRPSRVVVVAKTTRYEFEQQRYRYAELSEEDLKQLLALKGSSYSGLLERHHIHTKNVEHIIDSLRNEGIEVRLVKRREYDEETVRWADAVIAAGGDGTMLLAASKVLDRLKPVIGVNTDPERSEGHLCLPVRYTHSFPEALQKFYRGEFRWLWRQRIRLYLEGTGINPVPVDLHEQQLSLNQHNRALNIERAHDERSEASGPQLLPVRALNEVFIGESLSSRASYYEISVDDGPWEKQKSSGLNLCTGTGSKAWSFNINRVATQAVEDRLNIAKRQGNLSLPLNRELVEKVTNEYNESLLYSPEEPKILFSIREPIANRVFSSSRQRCFSSKVCVRSRCWDACMVVDGGTSFEFNDGAIASMMINKEDELRTVLLEQ
B4: His-NADK2^R378Q (enzyme, human, UniProt Q4G0N4 61-442, looked up)
chain: RADGGFRPSRVVVVAKTTRYEFEQQRYRYAELSEEDLKQLLALKGSSYSGLLERHHIHTKNVEHIIDSLRNEGIEVRLVKRREYDEETVRWADAVIAAGGDGTMLLAASKVLDRLKPVIGVNTDPERSEGHLCLPVRYTHSFPEALQKFYRGEFRWLWRQRIRLYLEGTGINPVPVDLHEQQLSLNQHNRALNIERAHDERSEASGPQLLPVRALNEVFIGESLSSRASYYEISVDDGPWEKQKSSGLNLCTGTGSKAWSFNINRVATQAVEDVLNIAKRQGNLSLPLNRELVEKVTNEYNESLLYSPEEPKILFSIQEPIANRVFSSSRQRCFSSKVCVRSRCWDACMVVDGGTSFEFNDGAIASMMINKEDELRTVLLEQ
B5: His-NADK2^K76Q (enzyme, human, UniProt Q4G0N4 61-442, looked up)
chain: RADGGFRPSRVVVVAQTTRYEFEQQRYRYAELSEEDLKQLLALKGSSYSGLLERHHIHTKNVEHIIDSLRNEGIEVRLVKRREYDEETVRWADAVIAAGGDGTMLLAASKVLDRLKPVIGVNTDPERSEGHLCLPVRYTHSFPEALQKFYRGEFRWLWRQRIRLYLEGTGINPVPVDLHEQQLSLNQHNRALNIERAHDERSEASGPQLLPVRALNEVFIGESLSSRASYYEISVDDGPWEKQKSSGLNLCTGTGSKAWSFNINRVATQAVEDVLNIAKRQGNLSLPLNRELVEKVTNEYNESLLYSPEEPKILFSIREPIANRVFSSSRQRCFSSKVCVRSRCWDACMVVDGGTSFEFNDGAIASMMINKEDELRTVLLEQ
B6: His-NADK2^S188A (enzyme, human, UniProt Q4G0N4 61-442, looked up)
chain: RADGGFRPSRVVVVAKTTRYEFEQQRYRYAELSEEDLKQLLALKGSSYSGLLERHHIHTKNVEHIIDSLRNEGIEVRLVKRREYDEETVRWADAVIAAGGDGTMLLAASKVLDRLKPVIGVNTDPERAEGHLCLPVRYTHSFPEALQKFYRGEFRWLWRQRIRLYLEGTGINPVPVDLHEQQLSLNQHNRALNIERAHDERSEASGPQLLPVRALNEVFIGESLSSRASYYEISVDDGPWEKQKSSGLNLCTGTGSKAWSFNINRVATQAVEDVLNIAKRQGNLSLPLNRELVEKVTNEYNESLLYSPEEPKILFSIREPIANRVFSSSRQRCFSSKVCVRSRCWDACMVVDGGTSFEFNDGAIASMMINKEDELRTVLLEQ
B7: His-NADK2^K304Q (enzyme, human, UniProt Q4G0N4 61-442, looked up)
chain: RADGGFRPSRVVVVAKTTRYEFEQQRYRYAELSEEDLKQLLALKGSSYSGLLERHHIHTKNVEHIIDSLRNEGIEVRLVKRREYDEETVRWADAVIAAGGDGTMLLAASKVLDRLKPVIGVNTDPERSEGHLCLPVRYTHSFPEALQKFYRGEFRWLWRQRIRLYLEGTGINPVPVDLHEQQLSLNQHNRALNIERAHDERSEASGPQLLPVRALNEVFIGESLSSRASYYEISVDDGPWEKQQSSGLNLCTGTGSKAWSFNINRVATQAVEDVLNIAKRQGNLSLPLNRELVEKVTNEYNESLLYSPEEPKILFSIREPIANRVFSSSRQRCFSSKVCVRSRCWDACMVVDGGTSFEFNDGAIASMMINKEDELRTVLLEQ
B8: His-NADK2^Δ78–114 (aa 61–442) (enzyme, human, UniProt Q4G0N4 61-442, looked up)
chain: RADGGFRPSRVVVVAKTHHIHTKNVEHIIDSLRNEGIEVRLVKRREYDEETVRWADAVIAAGGDGTMLLAASKVLDRLKPVIGVNTDPERSEGHLCLPVRYTHSFPEALQKFYRGEFRWLWRQRIRLYLEGTGINPVPVDLHEQQLSLNQHNRALNIERAHDERSEASGPQLLPVRALNEVFIGESLSSRASYYEISVDDGPWEKQKSSGLNLCTGTGSKAWSFNINRVATQAVEDVLNIAKRQGNLSLPLNRELVEKVTNEYNESLLYSPEEPKILFSIREPIANRVFSSSRQRCFSSKVCVRSRCWDACMVVDGGTSFEFNDGAIASMMINKEDELRTVLLEQ
B9: NADK2 expressed in HEK293E cells (full-length human NADK2 cDNA with a C-terminal FLAG-tag) (enzyme, UniProt Q4G0N4 63-442, looked up)
chain: DGGFRPSRVVVVAKTTRYEFEQQRYRYAELSEEDLKQLLALKGSSYSGLLERHHIHTKNVEHIIDSLRNEGIEVRLVKRREYDEETVRWADAVIAAGGDGTMLLAASKVLDRLKPVIGVNTDPERSEGHLCLPVRYTHSFPEALQKFYRGEFRWLWRQRIRLYLEGTGINPVPVDLHEQQLSLNQHNRALNIERAHDERSEASGPQLLPVRALNEVFIGESLSSRASYYEISVDDGPWEKQKSSGLNLCTGTGSKAWSFNINRVATQAVEDVLNIAKRQGNLSLPLNRELVEKVTNEYNESLLYSPEEPKILFSIREPIANRVFSSSRQRCFSSKVCVRSRCWDACMVVDGGTSFEFNDGAIASMMINKEDELRTVLLEQ

One data set concerns the molecule itself. Description: SAXS.
Turning to B1, the “stoichiometry N” value was found to be 2.

A further data set concerns the molecule itself. Description: mass photometry.
For the protein B2, the “stoichiometry N” value amounted to 2.
On the same count and under the same terms, for B3 the value was 2; for B4, 2; for B5, 2.
For B6, the “stoichiometry N” value came out at 2.
As to B7, the “stoichiometry N” value was 2.
Still for that read-out and setting: as for B8, the figure is 2.

A further data set concerns the molecule itself. Description: cross-linking.
On to B9, for which the “stoichiometry N” value worked out at 2.

Usually stoichiometry N stands for a count of units in the complex or per binding partner.
